Laboratory results reported in patent US20090137002A1 (published 2009).
Positions count from the first letter of the chain named.

B1: mEphrinB2-Fc fusion protein (Fc fusion, mouse, UniProt P52800 27-227, looked up)
chain: ISRSIVLEPIYWNSSNSKFLPGQGLVLYPQIGDKLDIICPKVDSKTVGQYEYYKVYMVDKDQADRCTIKKENTPLLNCARPDQDVKFTIKFQEFSPNLWGLEFQKNKDYYIISTSNGSLEGLDNQEGGVCQTRAMKILMKVGQDASSAGSARNHGPTRRPELEAGTNGRSSTTSPFVKPNPGSSTDGNSAGHSGNNLLGSE
notes: not shown: Fc part, not described
B2: MOR07728 IgG4-Pro (antibody, V domains shown)
VH: QVELVQSGAEVKKPGSSVKVSCKASGGTFSTYAISWVRQAPGQGLEWMGRIIPIFGTANYAQKFQGRVTITADESTSTAYMELSSLRSEDTAVYYCARSSYTILTTYYNYNAMDNWGQGTLVTVSS
VL: DIQMTQSPSSLSASVGDRVTITCRASQNINNFLNWYQQKPGKAPKLLIYGSSILQSGVPSRFSGSGSGTDFTLTISSLQPEDFATYYCQQNDFYSPSTFGQGTKVEIKR
notes: Fab MOR07728 converted into human IgG4-Pro format
B3: MOR07956 IgG4-Pro (antibody, V domains shown)
VH: B2 VH with R50K, T57D, N59D
VL: B2 VL with N91Y, S95L, P96S, S97G
notes: Fab MOR07956 converted into human IgG4-Pro format
B4: MOR07957 IgG4-Pro (antibody, V domains shown)
VH: B2 VH with R50Q, T57D, N59D
VL: B2 VL
notes: Fab MOR07957 converted into human IgG4-Pro format
B5: MOR07953 IgG4-Pro (antibody, V domains shown)
VH: QVELVESGGGLVQPGGSLRLSCAASGFTFNNAWMSWVRQAPGKGLEWVSAINAKGQFTSYADSVKGRFTISRDNSKNTLYLQMNSLRAEDTAVYYCARKGMSFYNNKYAKSMFDLWGQGTLVTVSS
VL: DIELTQPPSVSVAPGQTARISCSGDNLGKKYVHWYQQKPGQAPVLVIYYDSKRPSGIPERFSGSNSGNTATLTISGTQAEDEADYYCQTWTLSHMGNVFGGGTKLTVLG
notes: Fab MOR07953 converted into human IgG4-Pro format
B6: MOR07721 IgG4-Pro (antibody, V domains shown)
VH: QVQLVESGGGLVQPGGSLRLSCAASGFTFNNAWMSWVRQAPGKGLEWVSTIEAKMPNGATFYAAPVKGRFTISRDNSKNTLYLQMNSLRAEDTAVYYCARKGMSFYNNKYAKSMFDLWGQGTLVTVSS
VL: B5 VL with Q88S, T89A, L92T, S93T, H94M, G96H, N97I
notes: Fab MOR07721 converted into human IgG4-Pro format
B7: MOR07724 IgG4-Pro (antibody, V domains shown)
VH: B5 VH with E3Q, A50G, N52S, K54D, Q56V, F57H, T58K, S59F
VL: B5 VL with Q88S, T89A, L92T, S93T, H94M, G96H, N97I
notes: Fab MOR07724 converted into human IgG4-Pro format
B8: MOR07955 IgG4-Pro (antibody, V domains shown)
VH: B2 VH with R50K, T57D, N59D
VL: DIQMTQSPSSLSASVGDRVTITCRASQNINNFLNWYQQKPGKAPKLLIYGSSILQSGVPSRFSGSGSGTDFTLTISSLQPEDFATYYCSQDHFYPPSGTFGQGTKVEIKR
notes: Fab MOR07955 converted into human IgG4-Pro format

Legend:
[1] = target: T1, recombinant mouse EphB3-Fc fusion protein (mouse, UniProt P54754 30-537, limits assumed); assay: ELISA: mEphrinB2-Fc (25 ng/ml) on coated mEphB3-Fc, with or without 100 µg/mL anti-EphB4 Fab
T1 construct: also called mEphB3; not shown: Fc part, not described
T1 sequence (looked up): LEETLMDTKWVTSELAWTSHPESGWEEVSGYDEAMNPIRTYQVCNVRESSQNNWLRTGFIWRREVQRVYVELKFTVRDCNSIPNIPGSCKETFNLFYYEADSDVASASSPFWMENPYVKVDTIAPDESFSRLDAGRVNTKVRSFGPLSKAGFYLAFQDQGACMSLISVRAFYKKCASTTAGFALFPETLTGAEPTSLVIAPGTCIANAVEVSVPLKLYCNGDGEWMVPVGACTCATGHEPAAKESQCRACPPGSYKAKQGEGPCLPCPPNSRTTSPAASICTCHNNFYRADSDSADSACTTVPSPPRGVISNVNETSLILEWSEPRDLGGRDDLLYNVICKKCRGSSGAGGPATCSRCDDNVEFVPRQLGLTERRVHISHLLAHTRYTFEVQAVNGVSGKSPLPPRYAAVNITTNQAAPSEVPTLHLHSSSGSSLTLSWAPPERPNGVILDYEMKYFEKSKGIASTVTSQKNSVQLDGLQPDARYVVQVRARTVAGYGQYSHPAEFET
Method: Specificity for EphB4 in ELISA: Wells of a 96-well maxisorp-plate were coated overnight with 100 μL recombinant human EphB4 (hEphB4)-, recombinant mouse EphB3 (mEphB3)- or recombinant mouse EphA4 (mEphA4)-Fc fusion protein at a final concentration of 2.5 μg/mL in PBS. Anti-EphB4 Fab fragments (purified, MH-tagged) were added (100 μL/well, 100 μg/mL final concentration in chemiblock) to respective wells and incubated for 1 h at RT. Then 100 μl mEphrinB2-Fc fusion protein either spiked with the respective anti-EphB4 Fab or with PBS was added (25 ng/ml mEphrinB2+/−100 μg/ml Fab diluted in chemiblock) and incubated for max. 20 min at RT. The amount of bound EphrinB2 was detected using biotinylated goat anti-EphrinB2 antibody (0.05 μg/ml final concentration diluted in chemiblock, 1 h at RT), AP-conjugated streptavidin and AttoPhos substrate. Fluorescence was measured (RFU) at 535 nm (430 nm excitation).

[2] = target: T2, myc-tagged human EphB4 on transfected CHO cells (human, UniProt P54760 16-987); assay: FACS titration of IgG4-Pro on CHO-EphB4 cells
T2 construct: whole, on cells; also called CHO-EphB4; CHO-hEphB4; not shown: myc tag
T2 sequence (looked up): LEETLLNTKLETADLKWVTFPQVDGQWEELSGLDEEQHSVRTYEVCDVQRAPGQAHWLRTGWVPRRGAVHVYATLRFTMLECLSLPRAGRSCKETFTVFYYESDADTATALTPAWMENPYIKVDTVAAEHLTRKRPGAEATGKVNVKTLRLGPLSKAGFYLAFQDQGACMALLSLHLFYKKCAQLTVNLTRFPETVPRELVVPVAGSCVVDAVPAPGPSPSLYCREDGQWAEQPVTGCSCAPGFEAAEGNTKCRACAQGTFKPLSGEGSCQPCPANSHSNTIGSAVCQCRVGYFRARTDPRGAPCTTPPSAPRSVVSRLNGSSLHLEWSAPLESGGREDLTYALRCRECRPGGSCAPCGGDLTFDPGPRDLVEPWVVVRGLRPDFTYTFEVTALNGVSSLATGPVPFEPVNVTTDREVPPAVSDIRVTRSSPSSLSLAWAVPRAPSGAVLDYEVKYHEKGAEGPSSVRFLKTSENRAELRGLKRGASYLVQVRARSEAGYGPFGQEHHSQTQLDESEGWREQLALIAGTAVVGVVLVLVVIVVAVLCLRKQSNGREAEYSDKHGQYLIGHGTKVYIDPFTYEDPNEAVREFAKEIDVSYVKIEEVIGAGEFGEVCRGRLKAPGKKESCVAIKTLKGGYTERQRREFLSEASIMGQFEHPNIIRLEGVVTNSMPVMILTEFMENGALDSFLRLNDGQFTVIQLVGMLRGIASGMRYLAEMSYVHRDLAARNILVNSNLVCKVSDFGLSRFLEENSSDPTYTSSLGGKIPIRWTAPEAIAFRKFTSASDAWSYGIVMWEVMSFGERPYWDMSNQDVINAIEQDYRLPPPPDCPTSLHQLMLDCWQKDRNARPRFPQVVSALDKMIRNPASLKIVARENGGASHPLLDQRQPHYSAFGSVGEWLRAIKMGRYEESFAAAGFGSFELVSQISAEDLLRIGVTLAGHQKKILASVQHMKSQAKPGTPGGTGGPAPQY
Method: For the determination of EC50 values, the 12 final IgGs were analyzed on CHO-EphB4 cells in FACS. The EC50 values of the IgGs, determined in two independent experiments, are given in Table 11 and are compared to the EC50 values of the corresponding Fab. […] Again, as already seen for the Fab, the EC50 values of the MOR07310 pool were slightly better than those of the MOR03641 pool.

[3] = target: T2, myc-tagged human EphB4 on transfected …; assay: FACS, IgG4-Pro inhibition of murine ephrin-B2 binding to CHO-EphB4 cells; n = 1
Method: (§1) C50 values (i.e. IgG4-Pro inhibition of ligand binding) were determined in FACS. […] Receptor-bound ephrin-B2 was detected via biotinylated anti-mouse ephrin-B2 antibody (R&D Systems) and streptavidin-PE. The IC50 values of the IgGs, determined in two independent experiments, are given in Table 11 and are compared to the IC50 values of the corresponding Fab. […] Again, as already seen for the Fab, the IC50 values of the MOR07310 pool were slightly better than those of the MOR03641 pool.

[4] = target: T2, myc-tagged human EphB4 on transfected …; assay: FACS competition on CHO-EphB4 cells, competitor murine ephrin-B2
Method: as §1

[5] = target: T2, myc-tagged human EphB4 on transfected …; assay: FACS, IgG4-Pro inhibition of murine ephrin-B2 binding to CHO-EphB4 cells
Method: as §1

Binder | binding result [1] | EC50 [2] [nM] | EC50 (read off the curve) [2] [nM] | IC50 [3] [nM] | IC50 (read off the curve) [4] [nM] | IC50 [5] [nM] | fold improvement of IC50 compared to the corresponding Fab [5] [fold]
B1 | binds | – | – | – | – | – | –
B2 | – | 1.58 | ~2 | 3.26 | ~3 | – | –
B3 | – | 0.34 | – | 0.43 | – | – | –
B4 | – | 0.36 | – | – | – | 0.79 | –
B5 | – | 0.17 | ~0.1 | – | ~0.3 | 0.23 | –
B6 | – | 0.12 | – | – | ~0.1 | 0.16 | 6
B7 | – | 0.18 | – | – | ~0.1 | 0.1 | –
B8 | – | 0.51 | – | – | – | 0.31 | –
